Residue numbers refer to the chain shown, from its start. Values joined by “and” are separate entries in the source; they are usually repeats but may differ in a detail not shown here. Equal values may be shown once.
What was measured:
Settings in all cases: remark: other sources report otherwise
[1] = target: SARS-CoV-2 full length spike protein, wild type, expressed on the surface of CHO cells (SARS-CoV-2), P0DTC2
[2] = target: SARS-CoV-2 full length spike protein (wild-type), conjugated to optically encoded beads (SARS-CoV-2), P0DTC2
[3] = target: SARS-CoV-2 spike (S) protein (SARS-CoV-2), P0DTC2
[4] = target: SARS-CoV-2 spike (S) protein, full length, wild type, expressed on the surface of CHO cells (SARS-CoV-2), P0DTC2
[5] = target: T1, SARS-CoV-2 full length spike protein (wild type) (SARS-CoV-2), P0DTC2
[6] = target: SARS-CoV-2 spike protein (SARS-CoV-2), P0DTC2
[7] = target: SARS-CoV-2 full length spike protein, wild type, expressed on the surface of transiently transfected CHO cells (SARS-CoV-2), P0DTC2
[8] = target: T1, SARS-CoV-2 full length spike protein …; remark: listed apart in the source
[9] = target: SARS-CoV-2 full length spike protein (wild-type) (SARS-CoV-2), P0DTC2
[10] = target: SARS-CoV-2 full length spike protein (wild type), conjugated to beads (SARS-CoV-2), P0DTC2

B1: antibody 544 (antibody, V domains shown)
VH: QVQLQQWGAGLLKPSETLSLTCAVYGGSFSGYYWSWIRQPPGKGLEWIGEINHSGSTNYNPSLKSRVTISVDTSKNQFSLKLSSVTAADTAVYYCARGFKWFGELLFGAQGTLVTVSS
VL: not shown
Q: What does the source list for B1?
A: median fluorescence fold over isotype control (fold over isotype) [1]: 2.48; median fluorescence fold over isotype (fold over isotype) [2]: 639

B2: antibody 538 (antibody, V domains shown)
VH: QLQLQESGPGLVKPSETLSLTCTVSGGSISSSSYYWGWIRQPPGKGLEWIGSINYSGSTYYNPSLKSRVTISVDTSKNQFSLKLSSVTAADTAVYYCARYHDYGDDYWGQGTLVTVSS
VL: QLVLTQSPSASASLGASVKLTCTLSSGHSRYAIAWHQQQPEKGPRYLMKLNSDGSHSKGDGIPDRFSGSSSGAERYLTISSLQSEDEADYYCQTWGTGIQVFGGGTKLTVL
Q: With B2 as the binder, how does the median fluorescence fold over isotype control (fold over isotype) [1] read?
A: 1.96

Q: And the median fluorescence fold over isotype (fold over isotype) [2]?
A: 607

B3: antibody 322 (antibody, V domains shown)
VH: EVQLVESGGGLVQPGGSLRLSCAASGFTFSSYWMSWVRQAPGKGLEWVANIKQDGSEKYYVDSVKGRFTISRDNAKNSLYLQMNSLRAEDTAVYYCARDEDVAAALDYWGQGTLVTVSS
VL: SYVLTQPPSVSVAPGKTARITCGGNNIGSKSVHWYQQKPGQAPVLVIYYDSDRPSGIPERFSGSNSGNTATLTISRVEAGDEADYYCQVWDSSSDHPERVFGGGTKLTVL
Q: B3 was tested. Which Kd [3] did it give?
A: 21.1 nM

Q: And the koff [3]?
A: 0.000401 s⁻¹

Q: And the kon [3]?
A: 19000 M⁻¹ s⁻¹

Q: And the median fluorescence fold over isotype (fold over isotype) [4]?
A: 4.94 and 1.65

B4: antibody 362 (antibody, V domains shown)
VH: QVQLVESGGGVVQPGRSLRLSCAASGFNLSNYAMHWVRQASGKGLEWVSLISYDGSVKYYTDSVKGRFTVSGDNSKNTLFLQMNSLRPDDSALYYCVRGGVSGPNSFDMWGQGTTVTVSS
VL: DVVMTQSPLSLPVTLGQPATISCRSSQSLVYSDGNTYVNWFQQRPGQSPRRLIYQVSIRASGVPDRFSGSGSGTDFALKISRVEAEDVGVYYCMQGTHWPVTFGQGTKVEIK
Q: With B4 as the binder, how does the median fluorescence fold over isotype (fold over isotype) [4] read?
A: 9.45

Q: And the median fluorescence intensity fold over isotype (fold over isotype control) [5]?
A: 503

B5: antibody 389 (antibody, V domains shown)
VH: QVQLVESGGGVVQPGRSLRLSCAASGFTFSSYAMHWVRQAPGKGLEWVAVISYDGSNKYYADSVKGRFTISRDNSKNTLYLQMNSLRAEDTAVYYCASQGRMYVRGVDYGVYWGQGTLVTVSS
VL: NFMLTQPHSVSESPGKTVTISCTGSSGSIASNYVQWYQQRPGSAPTTVIYEDNQRPSGVPDRFSGSIDSSSNSASLTISGLKTEDEADYYCQSYDSSKISHAVFGGGTQLTVL
Q: Which Kd [6] does the source give for B5 here?
A: < 0.0222 nM

Q: What about the koff [6] of the same binder?
A: < 1e-05 s⁻¹

Q: And the kon [6]?
A: 450000 M⁻¹ s⁻¹

Q: And the median fluorescence fold over isotype control (fold over isotype) [7]?
A: 0.72

B6: antibody 325 (antibody, V domains shown)
VH: QVQLQESGPGLVKPSQTLSLTCTVSGGSISGGGYYWSWIRQHPGKGLEWIGYIYYSGSTYYNPSLQSRVTISVDTSKNQFSLKLSSVTAADTAVYYCARVGTSSVWYFDYWGQGTLVTVSS
VL: QSALTQPRSVSGSPGQSVTISCTGTSSDVGGYNYVSWYQQHPGKAPKLMIYDVTKRPSGVPDRFSGSKSGNTASLTISGLQAEDEADYYCSSYAGSWVFGGGTKLTVL
Q: How did the Kd [3] turn out when B6 was run?
A: 7.36 nM

Q: What about the koff [3] of the same binder?
A: 0.000154 s⁻¹

Q: And the kon [3]?
A: 20900 M⁻¹ s⁻¹

Q: What about the median fluorescence fold over isotype (fold over isotype) [4] of the same binder?
A: 1.14 and 1.08

B7: antibody 315 (antibody, V domains shown)
VH: QVQLVQSGSELKKPGASVKLSCQASGYSFTNHAMNWVRQAPGQGLEWMGWINTNTGNPTYAQGFTGRFVFSLDTSVSTTYLHISSLKAEDTAVYYCARASARPGVATNLDFWGQGTLVVVSS
VL: DIQMTQSPSSLSASVGDRVTITCRASQNIDNYLNWYQQKPGKAPKLLIYAASRLHSGVPSRFSGSGSGTDFTLIISSLQPEDLATYYCQQSYSNPLTFGPGTKVDIR
Q: How did the median fluorescence intensity, fold over isotype control (fold over isotype) [8] turn out when B7 was run?
A: 8.85

Q: And the median fluorescence intensity fold over isotype (fold over isotype control) [5]?
A: 592

B8: antibody 444 (antibody, V domains shown)
VH: QVQLVESGGGLVKPGGSLRLSCAASGFTFSDYYMSWIRQAPGKGLEWVSYISSSGSTIYYADSVKGRFTISRDNAKNSLYLQMNSLRAEDTAVYYCARERKVVVAATRNYYYYYGMDVWGQGTTVTVSS
VL: SYELTQPPSVSVSPGQTARITCSGDALPKQYAYWYQQKPGQAPVLVIYKDSERPSGIPERFSGSSSGTTVTLTISGVQAEDEADYYCQSADSSTWVFGGGTKLTVL
Q: What does the source list for B8?
A: Kd [6]: 27.2 nM; koff [6]: 0.000717 s⁻¹; kon [6]: 26400 M⁻¹ s⁻¹; Binding to Wild-Type SARS-CoV-2 (Bead Assay) [9]: 0.97 and 0.91 and 0.9

B9: antibody 337 (antibody, V domains shown)
VH: QVQLVESGGGVVQPGRSLRLSCAASGFTFSSYGMHWVRQAPGKGLEWVAIIWYDGSNKYYADSVKGRFTISRDNSKNTLYLQMNSLRAEDTAVYYCAKDTGGYCSGGSCYPESYFDYWGQGTLVTVSS
VL: SYVLTQPPSVSVAPGKTARITCGGNNIGSKSVHWYQQKPGQAPVLVIYYDSDRPSGIPERFSGSNSGNTATLTINRVEAGDEADYYCQVWDGSSDHLYVFGTGTKVTVL
Q: How did the median fluorescence fold over isotype (fold over isotype) [4] turn out when B9 was run?
A: 2.08

Q: What about the median fluorescence intensity fold over isotype (fold over isotype control) [5] of the same binder?
A: 756

B10: antibody 416 (antibody, V domains shown)
VH: EVQLVESGGGLVQPGRSLRLSCAASGFTFDDYAMHWVRQAPGKGLEWVSGISWNSGSIGYADSVKGRFTISRDNAKNSLYLQMNSLRAEDTALYYCAKDLAWLSGGMDVWGQGTTVTVSS
VL: not shown
Q: For B10, which Binding to Wild-Type SARS-CoV-2 (Bead Assay) [9] is on record?
A: 110

B11: antibody 269 (antibody, V domains shown)
VH: QLQLQESGPGLVKPSETLSLTCTVSGGSISSSSYYWGWIRQPPGKGLEWIGNIYYSGSTYYNPSLKSRVTISVDTSKNQFSLKLSSVTAADTAVYYCAGEELDIVATIYSSRYYYYGMDVWGQGTTVTVSS
VL: QSALTQPASVSGSPGQSITISCTGTSSDVGGYNYVSWYQQHPGKAPKLMIYEVSNRPSGVSNRFSGSKSGNTASLTISGLQAEDEADYYCSSYTSTSTLVFGGGTKLTVL
Q: Which Kd [3] does the source give for B11 here?
A: 7.29 nM

Q: And the koff [3]?
A: 0.000444 s⁻¹

Q: And the kon [3]?
A: 60900 M⁻¹ s⁻¹

Q: And the median fluorescence intensity, fold over isotype control (fold over isotype) [8]?
A: 13.3 and 9.09

Q: What about the binding signal, bead assay (fold over isotype) [5] of the same binder?
A: 480 and 191 and 188

B12: antibody 413 (antibody, V domains shown)
VH: EVQLVESGGGLIQPGGSLRLSCAASGFTVSGNYMNWVRQAPGKGLEWVSVIYSGGSTYYADSVKGRFTISRANSKNTLYLQMNSLRAEDTAVYYCASTSLVRGLIILYYYGMDVWGQGTTVTVSS
VL: B11 VL with T96S
Q: Which Kd [6] does the source give for B12 here?
A: < 0.0338 nM

Q: And the koff [6]?
A: < 1e-05 s⁻¹

Q: What about the kon [6] of the same binder?
A: 296000 M⁻¹ s⁻¹

Q: And the median fluorescence fold over isotype control (fold over isotype) [7]?
A: 1.11

Q: And the Binding to Wild-Type SARS-CoV-2 (Bead Assay) [9]?
A: 969 and 367 and 416

B13: antibody 392 (antibody, V domains shown)
VH: QVQLQESGPGLVKPSGTLSLTCAVSGGSISSSNWWSWVRQPPGKGLEWIGEIYHSGSTNYNPSLKSRVTISVDKSKNQFSLKLSSVTAADTAVYYCARGWRATLYGMDVWGQGTTVTVSS
VL: B11 VL with G31S, Y34L, N55K, S91C, T94A, S95G, T96S, L99W
Q: How did the binding signal, bead assay (fold over isotype) [10] turn out when B13 was run?
A: 509

B14: antibody 279 (antibody, V domains shown)
VH: EVQLLESGGGLVQPGGSLRLSCAASGFTFSSYAMSWVRQAPGKGLEWVSTISGSGGNTYYADSVKGRFTISRDNSKNTLYLQMNSLRAEDTAVYYCAKDLFQGLYYGSGEFDYWGQGTLVTVSS
VL: B11 VL with G31A, E52G, T96S, L99R, G103T, L107V
Q: Which results are given for B14?
A: Kd [3]: 52.3 nM; koff [3]: 0.00195 s⁻¹; kon [3]: 37300 M⁻¹ s⁻¹; median fluorescence intensity, fold over isotype control (fold over isotype) [8]: 8.59 and 3.84; binding signal, bead assay (fold over isotype) [5]: 3.09 and 1.36 and 1.11

Reference: patent publication US20210292393A1
